± gives the uncertainty stated by the source.
B1: POU domain, class 2, transcription factor 2, residues 200 to 269; numbered along this chain, P09086 (parent)
chain: LEELEQFARTFKQRRIKLGFTQGDVGLAMGKLYGNDFSQTTISRFEALNLSFKNMCKLKPLLEKWLNDAE

Variants of: B1
Assay: abundance fitness (aPCA) (normalised: wild type 0, dead -1); higher = more abundant; growth selection in yeast, the domain comes from the species named
Conditions: Homo sapiens

Variant	abundance fitness
K59N	-0.435 ± 0.11
K59L	-0.069 ± 0.035
L1G	0.01 ± 0.078
L1W	-0.051 ± 0.087
L1C	-0.496 ± 0.34
L1V	-0.061 ± 0.073
G26Q	0.042 ± 0.071
G26V	-0.022 ± 0.038
G26W	-0.023 ± 0.044
G26E	-0.023 ± 0.05
Q22K	-0.042 ± 0.07
Q22W	-0.006 ± 0.047
Q22P	-0.071 ± 0.051
Q22T	-0.045 ± 0.049
L4S	-0.253 ± 0.055
L4D	-0.64 ± 0.19
L4F	-0.055 ± 0.067
L4G	-0.655 ± 0.058
L4R	-0.485 ± 0.038
T41H	0.023 ± 0.073
T41A	-0.048 ± 0.064
L27C	-0.057 ± 0.068
L27P	-0.39 ± 0.051
K17Q	-0.096 ± 0.07

Variant	abundance fitness
K17E	-0.082 ± 0.056
K17T	-0.07 ± 0.063
K17F	-0.096 ± 0.092
L66M	-0.027 ± 0.057
L66C	0.025 ± 0.084
F45T	-0.989 ± 0.15
F45Y	-0.158 ± 0.079
F45M	-0.109 ± 0.046
E70Q	-0.07 ± 0.072
E70T	-0.086 ± 0.089
E70G	-0.072 ± 0.069
E70V	-0.035 ± 0.042
E70S	0.071 ± 0.084
E46G	-0.942 ± 0.083
E46K	-0.431 ± 0.13
N49E	0.07 ± 0.044
N49P	-0.671 ± 0.056
N49W	-0.309 ± 0.044
R44E	0.088 ± 0.055
A28I	-0.167 ± 0.077
A28Y	-0.101 ± 0.078
K12S	-0.022 ± 0.22
K12I	0.02 ± 0.29
K12R	-0.142 ± 0.18

Variant	abundance fitness
L32V	-0.098 ± 0.045
I42A	-0.609 ± 0.086
I42Y	-0.511 ± 0.21
I42D	-0.857 ± 0.24
I42R	-1.11 ± 0.14
I42E	-0.758 ± 0.1
M29R	-0.655 ± 0.059
M29V	0.003 ± 0.053
M29Q	-0.463 ± 0.072
M55C	-0.439 ± 0.13
S43C	-0.149 ± 0.083
L50E	0.008 ± 0.074
L50G	-0.116 ± 0.028
L50R	-0.625 ± 0.044
L50M	-0.049 ± 0.057
V25K	-0.894 ± 0.057
V25I	-0.098 ± 0.1
F52W	-0.024 ± 0.055
F52L	-0.014 ± 0.046
F52E	-0.044 ± 0.071
S51E	0.025 ± 0.05
S51C	-0.172 ± 0.072
S51K	-0.019 ± 0.052
N35Q	-0.104 ± 0.08

Variant	abundance fitness
G23R	-0.004 ± 0.035
G23L	-0.021 ± 0.035
G23T	-0.102 ± 0.049
G23F	-0.01 ± 0.14
G23A	0.04 ± 0.034
D36G	-0.06 ± 0.031
D36R	-0.034 ± 0.04
D36Y	0.013 ± 0.09
D36V	-0.048 ± 0.038
D36W	-0.052 ± 0.048
A69D	-0.233 ± 0.088
A69K	-0.105 ± 0.063
A69T	0.056 ± 0.069
I16H	-0.16 ± 0.083
I16R	-0.059 ± 0.027
I16E	0.048 ± 0.044
I16A	-0.085 ± 0.037
E5I	-0.293 ± 0.098
E5N	-0.224 ± 0.15
E5C	-0.07 ± 0.08
E5M	0.048 ± 0.08
F7H	-0.416 ± 0.1
L48A	0.053 ± 0.053
A8F	-0.708 ± 0.15

Variant	abundance fitness
A8W	-0.452 ± 0.08
A8L	-0.371 ± 0.033
E3R	-0.162 ± 0.034
E3A	-0.123 ± 0.035
E3N	-0.107 ± 0.085
T21H	-0.286 ± 0.12
T21K	-0.173 ± 0.06
T21W	-0.633 ± 0.062
T21I	-0.746 ± 0.14
E2T	-0.274 ± 0.094
Q6W	-0.086 ± 0.056
Q6G	-0.048 ± 0.04
Q6V	-0.05 ± 0.043
Y33A	-0.057 ± 0.032
L58Y	-0.157 ± 0.06
C56G	-0.055 ± 0.029
C56D	-0.052 ± 0.057
C56H	-0.082 ± 0.092
C56T	0.053 ± 0.042
C56V	-0.029 ± 0.038
S38N	0.044 ± 0.073
S38C	-0.023 ± 0.059
Q39I	-0.017 ± 0.063
Q39T	0.042 ± 0.05

Variant	abundance fitness
R15K	-1.08 ± 0.23
R15C	-0.698 ± 0.084
R15W	-0.913 ± 0.086
R15F	-0.99 ± 0.18
Q13G	-0.038 ± 0.034
Q13H	-0.085 ± 0.077
K53T	0.064 ± 0.059
D68V	-0.054 ± 0.043
P60G	-0.016 ± 0.044
P60H	-0.216 ± 0.14
P60F	-0.05 ± 0.079
P60I	0.098 ± 0.069
P60C	-0.177 ± 0.059
P60T	-0.06 ± 0.052
A47N	-0.019 ± 0.085
A47K	-0.054 ± 0.083
N54W	-0.081 ± 0.056
N54D	0.101 ± 0.1
N54H	0.091 ± 0.091
N54P	-0.264 ± 0.059
N54I	-0.272 ± 0.12
N54F	0.018 ± 0.13
K31F	-0.336 ± 0.11
K31M	-0.168 ± 0.051

Variant	abundance fitness
G34K	-0.111 ± 0.07
G34R	-0.132 ± 0.038
G34E	0.052 ± 0.064
G34M	-0.208 ± 0.089
G34H	-0.018 ± 0.11
R14A	-0.064 ± 0.048
R14T	0.023 ± 0.047
L61H	-0.064 ± 0.079
L61I	-0.141 ± 0.1
T10S	-0.016 ± 0.017
T10F	0.003 ± 0.024
T10W	-0.142 ± 0.019
L62M	0.025 ± 0.05
L62S	-0.804 ± 0.1
L62V	-0.043 ± 0.049
F37Q	-0.061 ± 0.073
F37W	-0.012 ± 0.049
F37T	-0.175 ± 0.065
F37A	-0.152 ± 0.056
L18M	0.014 ± 0.064
L18W	-0.216 ± 0.04
D24V	-0.169 ± 0.048
D24C	-0.172 ± 0.13
